B1: Fractalkine (Homo sapiens), P78423 (parent)
chain: MAPISLSWLLRLATFCHLTVLLAGQHHGVTKCNITCSKMTSKIPVALLIHYQQNQASCGKRAIILETRQHRLFCADPKEQWVKDAMQHLDRQAAALTRNGGTFEKQIGEVKPRTTPAAGGMDESVVLEPEATGESSSLEPTPSSQEAQRALGTSPELPTGVTGSSGTRLPPTPKAQDGGPVGTELFRVPPVSTAATWQSSAPHQPGPSLWAEAKTSEAPSTQDPSTQASTASSPAPEENAPSEGQRVWGQGQSPRPENSLEREEMGPVPAHTDAFQDWGPGSMAHVSVVPVSSEGTPSREPVASGSWTPKAEEPIHATMDPQRLGVLITPVPDAQAATRRQAVGLLAFLGLLFCLGVAMFTYQSLQGCPRKMAGEMAEGLRYIPRSCGSNSYVLVPV

The experiment covers variants of B1. As to conditions: with cx3c1_human CX3CR1, P49238.
Chain of cx3c1_human CX3CR1, P49238 (P49238 whole entry): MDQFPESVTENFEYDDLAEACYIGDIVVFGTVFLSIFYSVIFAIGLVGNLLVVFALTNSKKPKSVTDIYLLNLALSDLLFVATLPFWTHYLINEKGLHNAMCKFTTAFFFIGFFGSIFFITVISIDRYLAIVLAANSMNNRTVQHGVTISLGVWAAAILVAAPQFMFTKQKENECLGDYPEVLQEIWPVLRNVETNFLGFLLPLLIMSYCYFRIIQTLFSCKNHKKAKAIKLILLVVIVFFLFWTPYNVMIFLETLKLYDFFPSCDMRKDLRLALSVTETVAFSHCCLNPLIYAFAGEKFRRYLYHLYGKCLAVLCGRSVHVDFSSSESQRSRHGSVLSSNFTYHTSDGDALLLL
For the variant MAPISLSWLLRLATFCHLTVLLAGQHHGVTKCNITCSKMTSKIPVALLIHYQQNQASCGAAAIILETRQHRLFCADPKEQWVKDAMQHLDRQAAALTRNGGTFEKQIGEVKPRTTPAAGGMDESVVLEPEATGESSSLEPTPSSQEAQRALGTSPELPTGVTGSSGTRLPPTPKAQDGGPVGTELFRVPPVSTAATWQSSAPHQPGPSLWAEAKTSEAPSTQDPSTQASTASSPAPEENAPSEGQRVWGQGQSPRPENSLEREEMGPVPAHTDAFQDWGPGSMAHVSVVPVSSEGTPSREPVASGSWTPKAEEPIHATMDPQRLGVLITPVPDAQAATRRQAVGLLAFLGLLFCLGVAMFTYQSLQGCPRKMAGEMAEGLRYIPRSCGSNSYVLVPV [K60A;R61A], the “effect of a mutation on the interaction” value is “with no effect”.
For MAPISLSWLLRLATFCHLTVLLAGQHHGVTKCNITCSKMTSKIPVALLIHYQQNQASCGKRAIILETRQHALFCADPKEQWVKDAMQHLDRQAAALTRNGGTFEKQIGEVKPRTTPAAGGMDESVVLEPEATGESSSLEPTPSSQEAQRALGTSPELPTGVTGSSGTRLPPTPKAQDGGPVGTELFRVPPVSTAATWQSSAPHQPGPSLWAEAKTSEAPSTQDPSTQASTASSPAPEENAPSEGQRVWGQGQSPRPENSLEREEMGPVPAHTDAFQDWGPGSMAHVSVVPVSSEGTPSREPVASGSWTPKAEEPIHATMDPQRLGVLITPVPDAQAATRRQAVGLLAFLGLLFCLGVAMFTYQSLQGCPRKMAGEMAEGLRYIPRSCGSNSYVLVPV [R71A], the “effect of a mutation on the interaction” value was “disrupting interaction strength”.

Values taken from IntAct's records for PubMed 23125415.
